Source: US12187807B2, “Antibody molecules to C5AR1 and uses thereof” (Visterra, Inc., priority 2020, dated 2025)
“Also recorded” adds a separate entry of the source. Read-outs that look alike come from different tables or passages of the source.

T1: C5aR1 (C5aR1-U937 cells) (Homo sapiens, UniProt P21730, K279N)
T1 construct: expressed in transfected cells
T1 sequence (P21730 with tags, fused parts or gaps K279N limits assumed): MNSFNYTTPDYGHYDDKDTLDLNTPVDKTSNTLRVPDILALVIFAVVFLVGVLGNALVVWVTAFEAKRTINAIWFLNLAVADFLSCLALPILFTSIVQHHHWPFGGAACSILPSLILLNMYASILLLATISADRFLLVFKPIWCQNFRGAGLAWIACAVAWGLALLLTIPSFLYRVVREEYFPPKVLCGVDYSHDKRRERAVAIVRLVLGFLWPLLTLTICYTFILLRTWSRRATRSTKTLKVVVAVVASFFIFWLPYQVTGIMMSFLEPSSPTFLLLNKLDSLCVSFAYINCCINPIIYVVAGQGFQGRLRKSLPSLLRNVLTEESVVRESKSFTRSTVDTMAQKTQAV

T2: biotinylated peptide representing the N-terminus of C5aR1 without tyrosine sulfation (Homo sapiens, UniProt P21730)
T2 construct: the N-terminus without tyrosine sulfation
T2 sequence (P21730 1-37 limits assumed): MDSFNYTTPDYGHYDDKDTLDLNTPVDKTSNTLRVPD

B1: clone 66: anti-C5aR1 Site I antibody; VH SEQ ID NO: 483, VL SEQ ID NO: 543 (antibody, V domains shown)
VH: QVQLQQSDAELVKPGASVKISCKASGYTFIDHAIHWVKQRPEQGLEWIGYISPGNGEIKYNEKFKAKATLTADKSSSAAYMQLNSLTSADSAVYFCKRALFYYTGKYQPMDYWGQGTTVTDSS
VL: DIVMTQSQKFMSTTAGDRVSITCKASQNVGSAVVWYQQKPGRSPKLLIYSSSIRYTGVPDRFTGSGSGTDFTLTINSVQSEDLADYFCQQYNSFPLTFGAGTKLEIK
B2: clone 583: anti-C5aR1 Site I antibody; VH SEQ ID NO: 536, VL SEQ ID NO: 595 (antibody, V domains shown)
VH: EVQLVESGGGLVKPGGSLKLSCAASGFTFNAYAMSWVRQTPEKRLEWVASISTGGNTYCPDSVKDRFTVSRDNVRNILYLQMSSLRSEDTAMYYCTRGYQRFSGFAYWGQGTLVTVS
VL: DVVMTQTPLSPPVSLGYQASISCRSSQSLVHSNGNTYLNWYLQKPGQSPKLLIYKVSNRLSGVPDRFSGSGSGTDFTLKISRVETEDLGVYFCSQSTHVPYTFGGGTKLEIK
B3: clone 329: anti-C5aR1 Site II antibody; VH SEQ ID NO: 492, VL SEQ ID NO: 552 (antibody, V domains shown)
VH: QVQLQQSGAELTKPGASVKLSCKASGYTFTNYWMHWVKQRPGQGLEWIGYLNPSSGYTKYNQKFKDKATLTADKSSSTAYMQLNSLTYEDSAVYYCTRSGGDNYGNPYYFDRWGQGTTVTVSS
VL: DVVMTQTPLSLTVSLGDQASISCRSSQSLVHSNGNTYLHWYLQKPGQSPKFLIYKVSNRFSGVPDRFSGSGSGTDFRLKISRVEAEDLGVYFCSQSTLVPLTFGAGTKLEIK

How the values were obtained:
[1] = tested on: C5aR1 mutants (N-terminus, ECL1, ECL2, ECL3); assay: Alanine scanning / mutagenesis epitope mapping of C5aR1; assay type: binding, human
Text: FIG. 5A is a diagram showing the results of alanine scanning mutations of site I interaction with mab 583. The N-terminal amino acid sequence of C5aR1 is listed across the top of the figure. Glycosylation sites are indicated by rectangle boxes. The only natural glycosylation site is at position N5. The other sites were introduced by mutagenesis. Mutations that abolished clone 583 binding are circled. The sulfated tyrosines at positions 11 and 14 are marked with a star sign. FIG. 5B is a diagram showing results of alanine scanning mutations of site I interaction with mab 66. Mutations that abolished clone 66 binding are circled. The sulfated tyrosines at positions 11 and 14 are marked with a star sign.
Ala substitutions of T8 & D10 moderately reduces its affinity while Y11 & D15 abolishes mAb binding. […] N-glycosylation of at N17 or D17P also abolishes mAb binding. N5 glycan is tolerated but a tandem glycosylation (N5 & N17) is not tolerated. mAb core epitopes are T8-G12 but nature of AA present in D15-D18 influence its binding. […] The core epitope appears to be located near T8-G12, with additional contributions from D15-D18.
Clone 66 was previously characterized as a site I binder and its binding is dependent on tyrosine sulfation at positions 11Y and/or 14Y. […] It should be noted that the only the only non-human species to retain clone 66 binding was baboon, which is the only NHP that retains the DYGHY motif.
However, it was unknown if additional contacts were made with ECL1 or ECL3. […] The data is highlighted in FIG. 5C-5E.
The core epitope of clone 11 is from E180-P183; the core epitope of clone 329 is from E180-P184; and the core epitope of clone 336 is from R178-P183. […] The data for clones 11, 329, and 336 is highlighted in FIG. 5F.

[2] = molecular target: T3, biotinylated peptide representing ECL2 of C5aR1 (Homo sapiens, UniProt P21730); assay: Epitope mapping by biolayer interferometry, ECL2 peptide; assay type: binding; parameters: key: “+” indicates binding to the listed peptide; “−” indicates lack of binding to the listed peptide
T3 construct: cyclic ECL2 peptide spanning from residues R175 to C188
Method: (§1) The epitope mapping was undertaken, using biolayer interferometry, on a series of exemplary anti-C5aR1 antibodies generated as described in Example 1. Briefly, for each antibody, biotinylated peptides representing ECL2, the N-terminus with tyrosine sulfation, and the N-terminus without tyrosine sulfation, were immobilized in a streptavidin biosensor. Subsequently, the biosensor was exposed to 10 μg/mL of antibody to detect antibody binding to the immobilized peptide. The results of the epitope mapping study are shown in Table 4 (“+” indicates binding to the listed peptide; “−” indicates lack of binding to the listed peptide).

C5aR1 (C5aR1-U937 cells) = molecular target: T1, C5aR1 (C5aR1-U937 cells); assay: C5a induced calcium flux (Fluo-4), C5aR1-U937 cells; assay type: cell-based
Text: Intracellular calcium is released into the cytoplasm by stimulation of GPCRs and acts as a second messenger of GPCR signaling, commonly used to quantify GPCR agonism and antagonism. As such, calcium flux assays using calcium sensitive dye were utilized to detect cytosolic changes in calcium concentration. […] The dye penetrated the cell membrane and became active once inside the cell. The active form of the dye became fluorescent after binding to intracellular calcium and the fluorescence was used to determine C5aR1 signaling in response to C5a addition. Specifically, stable C5aR1-U937 cells or neutrophils isolated from whole blood were stained with Fluo-4 Direct Calcium Assay kit from Thermo Fisher for 1 hour at 37° C. Next, antibody or antagonist was incubated with the cells for 30 minutes. The basal fluorescence with an excitation at 494 nm and emission at 516 nm was measured for 15 seconds. C5a was added to the cells and the fluorescence was measured over a span of four minutes. The basal read from before C5a stimulation and the max signal after C5a stimulation were used to calculate the response ratio. The potency of the antibodies was assessed for their ability to inhibit intracellular calcium release in C5aR1 expressing cells in the presence of C5a. Similar to the chemotaxis assay, the calcium flux assays were performed using engineered cells stably expressing C5aR1 as well as using human neutrophils.

[3] = molecular target: T2, biotinylated peptide representing the N-terminus of C5aR1 without tyrosine sulfation; assay: Epitope mapping by biolayer interferometry, N-terminus without tyrosine sulfation; assay type: binding; parameters: key: “+” indicates binding to the listed peptide; “−” indicates lack of binding to the listed peptide; conditions: 10 μg/mL of antibody, biotinylated peptide on streptavidin biosensor
Method: as §1

[4] = biolayer interferometry, 10 μg/mL of antibody, biotinylated peptide on streptavidin biosensor

| Molecule | non-human species that retains binding [1] | requirement of tyrosine sulfation (Y11, Y14) for binding [1] | Binding to Cyclic ECL2 peptide [2, 4] | inhibition of C5a induced intracellular calcium flux (C5aR1 (C5aR1-U937 cells)) | Binding to Non-sulfated N-terminal peptide [3] | cross-reactivity to cyno and rhesus monkey [1] | binding to C5aR1 mutant ([1]; G12A/T) | binding to C5aR1 mutant ([1]; G12E/D) | binding to C5aR1 mutant ([1]; mutations at D15) | binding to C5aR1 mutant ([1]; mutations at positions 13 and 14) | binding to C5aR1 mutant ([1]; Ala mutation of E180 & Y181) | binding to C5aR1 mutant ([1]; mutation of Y182, P183 & P184) | Binding to Cyclic ECL2 peptide ([2]; peptide spanning residues R175 to C188) | inhibition of C5a induced intracellular calcium flux (C5aR1 (C5aR1-U937 cells); listed as 329) |
| --- | --- | --- | --- | --- | --- | --- | --- | --- | --- | --- | --- | --- | --- | --- |
| B1 | baboon | sulfation is only required at position 14 | − | inhibited calcium flux as single agents in a dose-dependent manner | − |  |  |  |  |  |  |  |  |  |
| B2 |  | tyrosine sulfation is not required | − | inhibition of the C5a induced calcium efflux | + | lack of cross-reactivity | tolerated | abolish binding | abolish binding | tolerated |  |  |  |  |
| B3 |  |  | + |  | − |  |  |  |  |  | abolished mAb binding | reduced binding | bound to a cyclic ECL2 peptide | inhibition of the C5a induced calcium efflux; also recorded: inhibited by antibody 329 in a dose-dependent manner; also recorded: inhibited calcium flux as single agents in a dose-dependent manner |
